Target: T1, MS2 bacteriophage coat protein (bacteriophage MS2), P03612
T1 chain: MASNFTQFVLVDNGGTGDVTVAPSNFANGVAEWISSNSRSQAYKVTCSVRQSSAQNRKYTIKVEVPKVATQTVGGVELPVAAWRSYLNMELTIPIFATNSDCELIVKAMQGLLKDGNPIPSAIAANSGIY
Assay: SEC
Conditions: remark: other sources report otherwise

B1: MS2 bacteriophage coat protein, P03612 1-130 (natural protein)
chain: T1 chain
- stoichiometry N: 2
